Reference: the RNAGym collection of RNA variant scans (doi:10.1073/pnas.2313332121)

B1: TPR t1 (parent)
chain: GACCAAUCUGCCCUCAGAGCUCGAGAACAUCUUCGGAUGCAGAGGAGGCAGGCUUCGGUGGCGCGAUAGCGCCAACGUCCUCAACCUCCAAUGCAUCCCACCACAUGAUGAUGCCUGAAGAGCCUUGGUUUUUUG

Variants of: B1
Assay: polymerase ribozyme fitness, log enrichment relative to wild type (log ratio); higher = more active; in vitro selection for triplet polymerase activity
How it was run: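 One round of in vitro selection, in triplicate, was applied to PCR-built, transcribed mutant libraries of each subunit of a heterodimeric triplet polymerase ribozyme. The steps were annealing with a biotinylated primer, partner subunit and triplets, incubation frozen at −7 °C, gel excision of extended constructs, streptavidin-bead capture and RT-PCR. Fitness is the logarithm, base 2, of genotype enrichment over wild-type enrichment from inverse-variance-weighted replicate averages of Illumina-sequenced inputs and outputs, keeping genotypes with ≥10 input reads and ≥1 read per output.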

| Variant | polymerase ribozyme fitness (log ratio) |
| --- | --- |
| GACCAAUUUGCCCUCAGAGCUCGAGAACAUCUUCGGAUGCAGAGGAGGCAGGUUUCGGUGGCGCGAUAGCGCCAACGUCCUCAACCUCCAAUGCAUCCCACCACAUGAUGAUGCCUGAAGAGCCUUGGUUUUUUG [C8U C53U] | 0.0512 |
| GACCAAUUUGCCCUUAGAGCUCGAGAACAUCUUCGGAUGCAGAGGAGGCAGGCUUCGGUGGCGCGAUAGCGGCAACGUCCUCAACCUCCAAUGCAUCCCACCACAUGAUGAUGCCUGAAUAGCCUUGGUUUUUUG [C8U C15U C72G G120U] | 1.39 |
| GACCAAUUUGCCCUCAGAGCUCGAGAACAUCUUCGGAUGCAGAGGAGGCAGGCUUCGGUGGCGCGAUAGCGGCAACGUCCUCAACCGCCAAUGUAUCCCACCACAUGAUGAUGCCUGAAGAACCUUGGUUUUUUG [C8U C72G U87G C94U G122A] | -0.203 |
| GACCAAUUUGCCCUCAGAGCUCGAGAACAUCUUCGGAUGCAGAGGAGGCAGGCUUCGGUGGCGCGAUAGCGCCAACGUCCUCAACCUUCAAUGCAUCCCACCACAUGAUGAUGCCUGAAGCGCCUUGGUUUUUUG [C8U C88U A121C] | 1.33 |
| GACCAAUUUGCCCUCAGAGCUGGAGAACAUCUACGGAUGCAGAGGAGGCCGGCUUCUGUGGCGCGAUAGCGCCAACGUCCUCAACCUCCAAUGCAUCCCACCACAUGAUGAUGCCUGAAUAGCCUUGGUUUUUUG [C8U C22G U33A A50C G57U G120U] | -4.54 |
| GACCAAUUUGCCCUCAGAGCUCGAGAACAUCUUCGGAUGCAGAGGAGGCAGGCUUCGGUGGCGCGAUAGCGCCAAAGUGCUCAACCUCCAAUGCAUCCCACCACAUGAUGAUGCCUGAAGAGGCUUGGUUUUUUG [C8U C76A C79G C123G] | 0.407 |
| GACCAAUUUGCCCUCAGAGCUCGAGAACAUUUUCGGAUGCAGAGGAGGCAGGUUUCGGUGGCGCGAUAGCGCCAACGUCCUCAACCUCCAAUGCAUCCCACCACAUGAUGAUGCCUGAAGAGCCUUGGUUUUUUG [C8U C31U C53U] | -4.36 |
| GACCAAUUUGCCCUCAGAGUUCGAGAACAUCUUCGGUUGCAGUGGAGGCAGGCUUCGGUGGCGCGAUAGCGUCUACGUCCUCAACCUCCAAUGCAUCCCACCACAUGAUGAUGCCUGAAGAGCCUUGGUUUUUUG [C8U C20U A37U A43U C72U A74U] | -2.39 |
| GACCAAUUUGCCCUCAGAGCUGGAGAACAUCUUCGGAUGCAGAGGAGGCAGGCUCCGGUGGCGCGAUAGCGCAAACGUCCUCAACCUCCAAUGCAUCACACCACAUGAUGGAGCCUGAAGAGCCUUGGUUUUUUG [C8U C22G U55C C73A C98A A111G U112A] | -6.04 |
| GACCAAUUUGCCCUCAGAGCUCGAGAACAUCUUCGGAUGCAGAGGAGGGAGGCUUCGGUGGCGCGAUAGCGCCAACGUCCUCAACCUCCAAUGCAUCCCACCACAUGAUGAUGCCUGAAGAGCCUUGGUUUUUUG [C8U C49G] | 0.889 |
| GACCAAUUUGCCCUCAGAGCUCGAGAAUAUCUUCGGAUGCAGAGGAGGCAGGCUUCGGUGGCGCGAUAGCGCCAACGUCCUCAACCUCCAAUGCAUCCCACCACAUGAUGAUGCCAGAAGAGCCUUGGUUUUUUG [C8U C28U U116A] | -3.54 |
| GACCAAUUUGCCCUCAGAGCUCGAGAACAUCUUCGGAUGCAGAGGAGGCAGGCUUCGGUGGCGCGAUAGCGCUAACGCCCUCAACCUCCAAUGCAUCCCACCACAUGAUGAUGCCUGAAGAGCCUUGGUUUUUUG [C8U C73U U78C] | 0.277 |
| GACCAAUUUGCCCUCAGAGCUCGAGAACAUCUUCGGAUGCAGAGGAGGCAGGCUUCGGUGGCGCGAUAGCGCUAACGUCCUCAACCUCCAAUGCAUCCCACCACAUGAUGAAGCCUGAAGAGCCUUGGUUUUUUG [C8U C73U U112A] | 1.84 |
| GACCAAUUUGCCCUCAGAGCUCGAGAACAUCUUCGGAUGCAGAGGAGGCAGGAUUCGGUGGCGCGAUAGCGCGAACGUCCUCAACCUCCAAUGCAUCCCACCACAUGAUGAUGCCUGAAGAGCCUUGGUUUUUUG [C8U C53A C73G] | -0.563 |
| GACCAAUUUGCCCUCAGAGCUAGAGAACAUCUUCGGAUGCAGAGGAGGCAGGCUUCGGUGGUGCGAUAGCGCCAACGUCCUCAACCUCCAAUGCAUCCCACCACAUGAUGAUGCCUGAAGAGCCUUGGUUUUUUG [C8U C22A C62U] | -4.04 |
| GACCAAUUUGCCCUCAGAGCUCGAGAACAUCUUCGGAUGUAGAGGAGGCACGCUUCGGUGGCGCGAUAGCGCCAACGUCCUCAACCUCCAAUGCAUCCCACCACAUGAUGAUGCCUGAACAGCCUUGGUUUUUUG [C8U C40U G51C G120C] | -1.98 |
| GACCAAUUUGCCCUCAGAGCUCGAGAACAUCUUCGGAUGCAGAGGAGGCAGGCUUCGGUGGCGCGAUAGCGCCAACGUCCUCAACCUUCAAUGCAUCCCACCACAUGAUGAUGCCUGAAGAGCCUUGGUUUUUUG [C8U C88U] | 0.472 |
| GACCAAUUUGCCCUCAGAGCUGGAGAACAUCUUCGGAUCCGGAGGAGGCAGGCUUCGGUGGCACGAUAGCGCCAACGUCCUCAACCUCCAAUGCAUCCCACCACAUGAUGAUGCCUGUAGAGCCUUGGUUUUUUG [C8U C22G G39C A41G G63A A118U] | -3.78 |
| GACCAAUUUGCCCUCAGAGCUCGAGAACAUCUUCGGAUGCAGAGGAGGCAGGUUUCGGUGGCGCGAUAGCGCUAACGUCCUCAACCUCCAAUGCAUCCCACCACCUGAUGAUGCCUGAAGAGCCGUGGUUUUUUG [C8U C53U C73U A105C U125G] | -1.94 |
| GACCAAUUUGCCCUCAGAGCUCGAGAACAUCUUUAGAUGCAGAGGAGGCAGGCUUCGGUGGCGCGAUAGCGCCAACGUCCUCAACCUCCAAUGCAUCCCAACACAUGAUGAUGUCUGAAGAGCCUUGGUUUUUUG [C8U C34U G35A C101A C114U] | -6.15 |
| GACCAAUUUGCCCUCAGAGCUCGAGAACAUCUUCGGAUGCAGAGGAGGCAGGCUUCGGUGGCGCGAUAGCGCCAAGGUCCUCAACCUCCAAUGCAACCCACCACAUGAUGAUGCCUGAAUAGCCUUGGCUUUUUG [C8U C76G U96A G120U U129C] | 0.287 |
